Experimental data reported in article PMC4022466, “Spermatid Cyst Polarization in Drosophila Depends upon apkc and the CPEB Family Translational Regulator orb2”.

Molecular target: T1, Orb2-RRM (GST-Orb2 C-terminus) (UniProt Q9VSR3 447-704)
T1 sequence: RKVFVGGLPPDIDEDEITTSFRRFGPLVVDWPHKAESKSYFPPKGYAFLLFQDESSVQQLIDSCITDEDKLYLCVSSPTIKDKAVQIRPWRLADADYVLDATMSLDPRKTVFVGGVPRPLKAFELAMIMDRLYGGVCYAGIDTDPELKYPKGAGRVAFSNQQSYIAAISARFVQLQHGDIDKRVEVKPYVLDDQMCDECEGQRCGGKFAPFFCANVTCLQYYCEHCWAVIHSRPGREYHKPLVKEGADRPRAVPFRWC
Assay: competition; 100-400 fold excess cold against RA-GS probe; 25 mM Tris pH 7.5, 10 mM EDTA (rest of buffer and temperature not in the material)
Settings: protein: recombinant; tags: GST

B1: Comp-CPE (competitor A) (ssRNA)
RNA: ACUUUUGUUUUUAAUGCAUUCCAC
Q: Does B1 bind?
A: binds
